This data set concerns T1, recombinant syndecan-1.
T1 sequence (P18827 whole entry, species assumed, looked up): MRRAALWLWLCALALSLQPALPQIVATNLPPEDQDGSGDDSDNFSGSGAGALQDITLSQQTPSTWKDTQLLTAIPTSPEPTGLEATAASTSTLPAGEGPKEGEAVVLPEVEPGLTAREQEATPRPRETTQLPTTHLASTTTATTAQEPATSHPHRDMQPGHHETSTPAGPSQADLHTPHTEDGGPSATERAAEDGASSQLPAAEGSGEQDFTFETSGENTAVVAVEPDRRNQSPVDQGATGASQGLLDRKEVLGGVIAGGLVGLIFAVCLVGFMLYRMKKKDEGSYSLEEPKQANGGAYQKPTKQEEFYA

For the substance recombinant GzmB, the “in vitro syndecan-1 cleavage assay (coomassie gel); GzmB 500 nM, syndecan-1 0.7 ug” value was “syndecan-1 was cleaved by all three granzymes”.
